In US20050244862A1:
Blank lines part the entries; values can stand above or below the substance they belong to.

Assays:
Assay in all cases: cell-based or functional assay
[1] = target: Insulin receptor
[2] = target: Gq-i5 chimeric G-protein
[3] = target: Gq-o5 chimeric G-protein
[4] = target: NK1 tachykinin receptor (UniProt P25103)
[5] = target: T1, NK3 tachykinin receptor (UniProt P29371)
T1 sequence (looked up): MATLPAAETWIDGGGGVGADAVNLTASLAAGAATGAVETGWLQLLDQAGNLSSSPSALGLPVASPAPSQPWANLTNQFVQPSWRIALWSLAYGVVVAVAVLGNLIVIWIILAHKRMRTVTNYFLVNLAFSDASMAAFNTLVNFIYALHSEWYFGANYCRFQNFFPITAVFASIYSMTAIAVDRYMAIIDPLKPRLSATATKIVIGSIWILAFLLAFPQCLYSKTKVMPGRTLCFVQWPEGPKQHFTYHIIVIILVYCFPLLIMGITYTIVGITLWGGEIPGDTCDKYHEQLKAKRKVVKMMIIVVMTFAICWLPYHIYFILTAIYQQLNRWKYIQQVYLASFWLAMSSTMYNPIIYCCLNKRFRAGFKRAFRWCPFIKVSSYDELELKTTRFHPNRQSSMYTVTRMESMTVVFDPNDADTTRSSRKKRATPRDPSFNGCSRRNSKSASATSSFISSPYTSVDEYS

[6] = target: NK2 tachykinin receptor (UniProt P21452)
Chain of NK2 tachykinin receptor (P21452 whole entry): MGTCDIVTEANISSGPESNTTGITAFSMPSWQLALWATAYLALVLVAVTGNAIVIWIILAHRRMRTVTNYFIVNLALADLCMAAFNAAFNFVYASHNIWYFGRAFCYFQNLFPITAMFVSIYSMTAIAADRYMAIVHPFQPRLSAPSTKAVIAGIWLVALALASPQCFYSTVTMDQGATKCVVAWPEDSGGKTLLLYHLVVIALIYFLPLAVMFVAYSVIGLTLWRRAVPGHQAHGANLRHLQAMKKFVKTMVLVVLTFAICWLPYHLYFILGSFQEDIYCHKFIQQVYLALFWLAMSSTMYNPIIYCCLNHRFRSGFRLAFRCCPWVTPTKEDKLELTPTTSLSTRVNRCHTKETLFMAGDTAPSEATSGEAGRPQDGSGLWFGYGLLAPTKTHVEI

Chain of m4 muscarinic receptor (P08173 whole entry): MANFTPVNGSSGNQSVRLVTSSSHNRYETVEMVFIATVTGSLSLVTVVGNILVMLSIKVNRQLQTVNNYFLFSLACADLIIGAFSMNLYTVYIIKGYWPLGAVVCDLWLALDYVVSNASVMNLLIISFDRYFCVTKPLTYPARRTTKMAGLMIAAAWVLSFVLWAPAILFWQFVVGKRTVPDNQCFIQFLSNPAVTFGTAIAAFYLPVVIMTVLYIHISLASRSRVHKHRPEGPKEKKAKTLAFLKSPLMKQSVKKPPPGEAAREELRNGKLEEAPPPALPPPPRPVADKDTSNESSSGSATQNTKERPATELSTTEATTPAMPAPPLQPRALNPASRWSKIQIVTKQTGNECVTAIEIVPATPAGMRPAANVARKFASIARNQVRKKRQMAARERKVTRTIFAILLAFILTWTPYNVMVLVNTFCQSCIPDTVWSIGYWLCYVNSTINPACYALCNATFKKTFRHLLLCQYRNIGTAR
Chain of NK1 tachykinin receptor (P25103 whole entry): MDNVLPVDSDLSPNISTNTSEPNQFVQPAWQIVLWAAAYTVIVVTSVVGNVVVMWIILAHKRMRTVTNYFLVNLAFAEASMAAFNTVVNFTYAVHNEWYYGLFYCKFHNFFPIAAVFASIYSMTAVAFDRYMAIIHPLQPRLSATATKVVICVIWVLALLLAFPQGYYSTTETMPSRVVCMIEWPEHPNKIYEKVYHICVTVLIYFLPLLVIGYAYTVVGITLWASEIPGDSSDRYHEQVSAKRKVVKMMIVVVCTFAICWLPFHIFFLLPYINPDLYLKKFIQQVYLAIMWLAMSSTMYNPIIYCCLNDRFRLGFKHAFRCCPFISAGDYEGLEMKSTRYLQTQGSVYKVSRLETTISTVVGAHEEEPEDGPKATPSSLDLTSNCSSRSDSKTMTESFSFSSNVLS

- EC50, amplification assay (β-galactosidase), Single Receptor Format [1]: 0.08 nM
Substance: Insulin (ligand)

- ED50 of carbachol for the β-galactosidase response of cells co-expressing m4 and Gq-i5 [2]: 37 nM
- ED50 of carbachol for the β-galactosidase response of cells co-expressing m4 and Gq-o5 [3]: 32 nM
Substance: m4 muscarinic receptor (from UniProt P08173 1-479)

- EC50, amplification assay (β-galactosidase), Single Receptor Format [4]: 14 nM
- EC50, amplification assay (β-galactosidase), Single Receptor Format [5]: 11 nM
Substance: neurokinin A (from UniProt P20366 98-107) (peptide)

- EC50, amplification assay (β-galactosidase), Single Receptor Format [6]: 65 nM
- EC50, amplification assay (β-galactosidase), Single Receptor Format [5]: 164 nM
Substance: substance P (from UniProt P20366 58-68) (peptide)
